The record followed here is patent publication US20050129672, “Regulatory sequences that direct gene expression to spinal motor neurons and uses thereof” (published 2005).

Series [1] addresses HOXB3 (UniProt P14651 P14651:1-431). The series is described as follows: EMSA; HOX alone. Conditions: tags: pSG5-derived vector, reticulocyte lysate; label: DIG. Here is the method:
(§1) PBX1 and HOX proteins used in this study were produced in vitro from the corresponding pSG5-derived expression vectors using a T7 polymerase-based coupled transcription-translation reticulocyte lysate system (Promega, Madison, Wis.). EMSA were performed according to the instruction of DIG gel shift kit (Roche). Briefly, 2 μl of double-stranded DIG-labeled oligonucleotides were incubated with 2 μl of in vitro-translated proteins in 20 μl of binding buffer (20 mM Hepes pH 7.6, 1 mM EDTA, 10 mM (NH₄)₂SO_{4, 1} mM DTT, 0.2%(w/v) Tween 20, 30 mM KCl in the presence of 1 μg of poly (dI-dC) and 0.1 μg of poly L-lysine) for 30 min at room temperature. Pre-binding reactions of unlabeled competitor oligonucleotides at ˜100-fold molar excess occurred for 15 minutes at room temperature. The incubation mixture was resolved by electrophoresis and served for chemiluminescent detection according to recommended conditions of DIG gel shift kit (Roche). DIG-labeled DNA probes used were generated by annealing complementary oligonucleotides:
(§2) Next, a representative subset of HOX proteins was tested for cooperative DNA binding with Pbx 1, to both the wild-type and a mutated 40 bp sequence derived from the 125 bp Hb9 enhancer (FIG. 6D). […] No binding was detected with PBX1 alone (lane 1), or with either of the HOX proteins alone. […]
On the technique in general: A gel shift assay detects complexes by their altered migration in electrophoresis.

In series [2] the target is HOXB1 (UniProt P14653 P14653:1-301). The series is described as follows: EMSA; HOX alone. Conditions: tags: pSG5-derived vector, reticulocyte lysate; label: DIG. Here is the method:
as §1, §2

Series [3] concerns the target HOXB1 + PBX1 (UniProt P14653;P40424 P14653:1-301,P40424:1-430). The series is described as follows: EMSA; cooperative complex; abolished by anti-PBX1 antibody; 20 mM Hepes pH 7.6, 30 mM KCl, poly(dI-dC), RT. The following applies: tags: pSG5-derived vectors, reticulocyte lysate; label: DIG. On the procedure: as §1, §2
Series [4] addresses T1, PBX1 (UniProt P40424 P40424:1-430).
T1 sequence: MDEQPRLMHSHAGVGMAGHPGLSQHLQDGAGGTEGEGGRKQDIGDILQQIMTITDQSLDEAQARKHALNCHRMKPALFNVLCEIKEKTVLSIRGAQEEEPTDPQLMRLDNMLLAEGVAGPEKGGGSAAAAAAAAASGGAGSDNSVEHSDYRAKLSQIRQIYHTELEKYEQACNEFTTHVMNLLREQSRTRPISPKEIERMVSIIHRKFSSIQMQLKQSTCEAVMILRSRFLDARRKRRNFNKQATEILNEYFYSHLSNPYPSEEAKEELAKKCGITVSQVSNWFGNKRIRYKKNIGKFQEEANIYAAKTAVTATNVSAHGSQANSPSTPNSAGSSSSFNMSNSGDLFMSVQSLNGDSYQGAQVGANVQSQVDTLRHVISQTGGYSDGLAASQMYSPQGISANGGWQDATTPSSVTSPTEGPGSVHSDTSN
The series is described as follows: EMSA; PBX1 alone. Conditions: tags: pSG5-derived vector, reticulocyte lysate; label: DIG. Here is the method: as §1, §2

The target in series [5] is HOXC8 + PBX1 (UniProt P31273;P40424 P31273:1-242,P40424:1-430). The series is described as follows: EMSA; no retarded complex with PBX1. Conditions: tags: pSG5-derived vectors, reticulocyte lysate; label: DIG. On the procedure:
as §1, §2

The target in series [6] is HOXD9 + PBX1 (UniProt P28356;P40424 P28356:1-352,P40424:1-430). The series is described as follows: EMSA; no retarded complex with PBX1. Conditions: tags: pSG5-derived vectors, reticulocyte lysate; label: DIG. Here is the method: as §1, §2
Series [7] addresses HOXB3 + PBX1 (UniProt P14651;P40424 P14651:1-431,P40424:1-430). The series is described as follows: EMSA; cooperative complex; 20 mM Hepes pH 7.6, 30 mM KCl, poly(dI-dC), RT. The following applies: tags: pSG5-derived vectors, reticulocyte lysate; label: DIG. Here is the method:
as §1, §2

Chain of HOXD9 + PBX1 (P28356 whole entry, one chain of several): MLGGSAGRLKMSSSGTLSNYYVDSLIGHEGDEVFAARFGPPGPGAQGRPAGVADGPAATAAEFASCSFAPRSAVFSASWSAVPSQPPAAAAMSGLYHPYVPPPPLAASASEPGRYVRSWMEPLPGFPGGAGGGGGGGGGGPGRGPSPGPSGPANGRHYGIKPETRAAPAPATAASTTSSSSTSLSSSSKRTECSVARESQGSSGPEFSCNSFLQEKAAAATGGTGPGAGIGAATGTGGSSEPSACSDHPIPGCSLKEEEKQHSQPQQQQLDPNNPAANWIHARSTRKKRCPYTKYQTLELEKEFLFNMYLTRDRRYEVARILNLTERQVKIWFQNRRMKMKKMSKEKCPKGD
Chain of HOXC8 + PBX1 (P31273 whole entry, one chain of several): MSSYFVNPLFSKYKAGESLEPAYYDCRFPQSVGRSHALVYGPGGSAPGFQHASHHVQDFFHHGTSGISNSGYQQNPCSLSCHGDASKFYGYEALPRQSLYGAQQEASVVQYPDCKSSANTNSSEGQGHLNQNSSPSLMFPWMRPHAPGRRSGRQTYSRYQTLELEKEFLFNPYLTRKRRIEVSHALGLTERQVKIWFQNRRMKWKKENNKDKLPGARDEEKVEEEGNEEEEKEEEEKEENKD
Chain of HOXB3 + PBX1 (P14651 whole entry, one chain of several): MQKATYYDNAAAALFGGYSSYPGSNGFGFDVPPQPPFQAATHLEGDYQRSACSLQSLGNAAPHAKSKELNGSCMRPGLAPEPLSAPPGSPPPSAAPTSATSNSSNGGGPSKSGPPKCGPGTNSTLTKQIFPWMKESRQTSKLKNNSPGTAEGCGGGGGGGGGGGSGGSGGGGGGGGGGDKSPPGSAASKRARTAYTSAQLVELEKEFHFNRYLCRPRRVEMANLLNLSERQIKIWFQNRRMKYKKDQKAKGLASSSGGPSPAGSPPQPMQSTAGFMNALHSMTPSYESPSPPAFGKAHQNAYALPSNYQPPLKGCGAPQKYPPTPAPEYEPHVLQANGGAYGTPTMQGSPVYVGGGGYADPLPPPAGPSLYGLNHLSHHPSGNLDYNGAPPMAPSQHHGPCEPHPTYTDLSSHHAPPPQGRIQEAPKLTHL
Chain of HOXB3 (P14651 whole entry, one chain of several): as above
Chain of HOXB1 + PBX1 (P14653 whole entry, one chain of several): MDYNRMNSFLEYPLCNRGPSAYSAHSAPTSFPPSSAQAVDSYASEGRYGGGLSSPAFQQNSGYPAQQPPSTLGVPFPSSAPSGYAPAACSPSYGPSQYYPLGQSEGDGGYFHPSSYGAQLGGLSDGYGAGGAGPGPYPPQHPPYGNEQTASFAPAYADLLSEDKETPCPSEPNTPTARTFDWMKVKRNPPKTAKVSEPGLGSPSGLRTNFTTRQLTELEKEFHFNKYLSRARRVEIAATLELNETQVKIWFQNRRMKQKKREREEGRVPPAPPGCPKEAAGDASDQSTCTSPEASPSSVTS
Chain of HOXB1 (P14653 whole entry, one chain of several): as above

B1: Hb9 125 bp enhancer wild-type 40 bp probe (dsDNA)
DNA 1: GTACGTTAGCTGATGAATTGACAAAAACTAATCAGCTTTA
DNA 2: TAAAGCTGATTAGTTTTTGTCAATTCATCAGCTAACGTAC
With B1, the binding result is given as “no binding” in series [1]; “no binding” in series [2]; “binds” in series [3]; “no binding” in series [4]; “no binding” in series [5]; “no binding” in series [6]. For the same molecule, the binding result in series [7] is recorded as “binds”.
